The record followed here is publication PMC7943762, “Bmp8a is an essential positive regulator of antiviral immunity in zebrafish”.

Data set [1] addresses T1, rStat1a (Danio rerio (zebrafish), UniProt O93598 1-749).
T1 sequence: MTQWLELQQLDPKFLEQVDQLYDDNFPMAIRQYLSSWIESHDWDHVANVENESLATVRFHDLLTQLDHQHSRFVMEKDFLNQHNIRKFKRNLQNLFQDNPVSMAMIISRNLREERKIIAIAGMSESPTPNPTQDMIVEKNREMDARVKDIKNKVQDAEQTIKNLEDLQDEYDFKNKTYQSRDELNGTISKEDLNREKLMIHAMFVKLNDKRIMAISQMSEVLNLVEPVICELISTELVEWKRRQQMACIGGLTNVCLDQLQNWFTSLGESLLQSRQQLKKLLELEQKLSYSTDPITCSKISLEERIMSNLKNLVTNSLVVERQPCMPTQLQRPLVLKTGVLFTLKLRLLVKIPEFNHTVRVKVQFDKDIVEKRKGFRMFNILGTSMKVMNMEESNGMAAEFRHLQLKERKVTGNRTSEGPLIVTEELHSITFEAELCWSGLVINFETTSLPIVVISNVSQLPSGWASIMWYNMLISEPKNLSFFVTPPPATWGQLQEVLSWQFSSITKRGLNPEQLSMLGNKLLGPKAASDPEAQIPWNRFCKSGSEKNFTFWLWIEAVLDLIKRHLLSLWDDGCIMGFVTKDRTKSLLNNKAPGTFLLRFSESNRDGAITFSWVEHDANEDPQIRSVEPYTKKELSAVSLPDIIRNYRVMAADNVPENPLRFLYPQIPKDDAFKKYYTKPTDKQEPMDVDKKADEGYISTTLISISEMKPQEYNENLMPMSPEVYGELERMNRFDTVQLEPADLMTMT
Description: EMSA; poly(dI-dC); anti-His supershift; unlabeled probe competes; Beyotime GS009 EMSA/Gel-Shift binding buffer with poly(dI-dC), 25 C, 25 min preincubation then 30 min with 0.5 uM biotin probe (competitor stated as 0.5 uM), native 6% PAGE; salt and pH not stated. The note with it: protein: recombinant; tags: His (pET-28a; Ni-NTA, anti-His); chain copies: 2; label: biotin on both strands (5'); blunt. (In EMSA bound probe runs differently from free probe, usually more slowly.)

Data set [2] deals with T2, rStat1b (Danio rerio (zebrafish), UniProt B0S789 1-725).
T2 sequence: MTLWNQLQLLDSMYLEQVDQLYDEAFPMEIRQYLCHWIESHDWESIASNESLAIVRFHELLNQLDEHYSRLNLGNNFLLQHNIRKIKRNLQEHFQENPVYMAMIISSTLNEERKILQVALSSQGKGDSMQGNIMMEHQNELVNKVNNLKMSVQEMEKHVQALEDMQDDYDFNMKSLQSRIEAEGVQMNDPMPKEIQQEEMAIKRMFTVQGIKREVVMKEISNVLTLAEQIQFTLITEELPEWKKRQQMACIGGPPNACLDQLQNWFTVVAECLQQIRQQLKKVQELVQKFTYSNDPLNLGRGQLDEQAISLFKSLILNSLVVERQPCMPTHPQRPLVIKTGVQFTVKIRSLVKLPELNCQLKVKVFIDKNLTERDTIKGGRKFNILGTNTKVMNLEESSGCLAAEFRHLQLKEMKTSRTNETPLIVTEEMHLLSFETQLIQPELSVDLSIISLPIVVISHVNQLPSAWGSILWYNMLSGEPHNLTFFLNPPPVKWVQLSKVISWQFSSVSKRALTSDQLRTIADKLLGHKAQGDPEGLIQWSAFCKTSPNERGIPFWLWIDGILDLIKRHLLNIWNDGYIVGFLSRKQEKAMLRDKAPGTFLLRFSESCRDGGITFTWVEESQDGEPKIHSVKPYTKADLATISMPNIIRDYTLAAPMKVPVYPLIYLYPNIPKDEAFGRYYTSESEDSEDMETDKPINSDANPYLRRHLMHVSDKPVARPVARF
The description is as above. The note with it: protein: recombinant; tags: His (pET-28a; Ni-NTA, anti-His); chain copies: 2; label: biotin on both strands (5'); blunt.

Data set [3] deals with T1, rStat1a. Description: competition; unlabeled competitor vs biotin P2 probe; little change; Beyotime GS009 EMSA/Gel-Shift binding buffer with poly(dI-dC), 25 C, 25 min preincubation then 30 min with 0.5 uM biotin probe (competitor stated as 0.5 uM), native 6% PAGE; salt and pH not stated. Particulars: protein: recombinant; tags: His (pET-28a; Ni-NTA, anti-His); chain copies: 2; blunt.

Data set [4] concerns the target T2, rStat1b. Described as above. Particulars: protein: recombinant; tags: His (pET-28a; Ni-NTA, anti-His); chain copies: 2; blunt.
Data set [5] has as its target T1, rStat1a. Description: competition; unlabeled competitor vs biotin P1 probe; little change; Beyotime GS009 EMSA/Gel-Shift binding buffer with poly(dI-dC), 25 C, 25 min preincubation then 30 min with 0.5 uM biotin probe (competitor stated as 0.5 uM), native 6% PAGE; salt and pH not stated. The note with it: protein: recombinant; tags: His (pET-28a; Ni-NTA, anti-His); chain copies: 2; blunt.

Data set [6] addresses T2, rStat1b. Described as above. The note with it: protein: recombinant; tags: His (pET-28a; Ni-NTA, anti-His); chain copies: 2; blunt.

B1: P1 GAS probe (dsDNA)
DNA 1: AGACCATTCCGGGAAAACCAA
DNA 2: TTGGTTTTCCCGGAATGGTCT
Consider B1, for which the binding result in the data set with rStat1a [1] and in the data set with rStat1b [2] was “binds” each time.

B2: P2 mutant probe (dsDNA)
DNA 1: TTCAATGCACTAGGCCTTCTC
DNA 2: GAGAAGGCCTAGTGCATTGAA
B2: the binding result in the data set with rStat1a [3] and in the data set with rStat1b [4] was “no binding” each time.

B3: P1 mutant probe (dsDNA)
DNA 1: AGACCAGCCCGGGGCAACCAA
DNA 2: TTGGTTGCCCCGGGCTGGTCT
As to B3, the binding result in the data set with rStat1a [5] and with rStat1b [6] was “no binding” in each case.

B4: P2 GAS probe (dsDNA)
DNA 1: TTCAATTTACTAGAACTTCTC
DNA 2: GAGAAGTTCTAGTAAATTGAA
As for B4, the binding result with rStat1a [1] and in the data set with rStat1b [2] was “binds” each time.
